Patent publication US20220098319A1 (SHANGHAI PHARMAEXPLORER, published 2022)

T1: cynomolgus monkey CD73 (on transfected CHOK1 cells) (cynomolgus monkey, UniProt A0A2K5V5U7 27-549)
T1 construct: whole, on cells; also called CHOK1-cCD73; CHOK1-CCD73
T1 sequence: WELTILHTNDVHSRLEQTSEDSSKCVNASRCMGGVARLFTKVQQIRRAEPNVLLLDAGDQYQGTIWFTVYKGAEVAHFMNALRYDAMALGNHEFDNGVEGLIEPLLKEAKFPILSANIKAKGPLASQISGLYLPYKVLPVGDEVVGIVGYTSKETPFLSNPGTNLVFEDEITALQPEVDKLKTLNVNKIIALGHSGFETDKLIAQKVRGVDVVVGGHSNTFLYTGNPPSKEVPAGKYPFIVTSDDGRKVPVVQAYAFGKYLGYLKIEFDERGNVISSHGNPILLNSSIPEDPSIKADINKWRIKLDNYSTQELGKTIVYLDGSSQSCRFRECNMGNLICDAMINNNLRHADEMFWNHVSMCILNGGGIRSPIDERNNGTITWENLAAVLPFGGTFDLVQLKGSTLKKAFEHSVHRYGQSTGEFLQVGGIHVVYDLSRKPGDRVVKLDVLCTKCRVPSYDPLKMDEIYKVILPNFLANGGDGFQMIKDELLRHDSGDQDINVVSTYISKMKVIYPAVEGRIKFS

T2: His-tagged CD73 extracellular domain protein (hCD73 ECD-His) (human, UniProt P21589 27-547)
T2 construct: Expressed in CHO cells from pTT5-hCD73 ECD-His6, purified on nickel column; also called hCD73 ECD-His6; human CD73 ECD
T2 sequence: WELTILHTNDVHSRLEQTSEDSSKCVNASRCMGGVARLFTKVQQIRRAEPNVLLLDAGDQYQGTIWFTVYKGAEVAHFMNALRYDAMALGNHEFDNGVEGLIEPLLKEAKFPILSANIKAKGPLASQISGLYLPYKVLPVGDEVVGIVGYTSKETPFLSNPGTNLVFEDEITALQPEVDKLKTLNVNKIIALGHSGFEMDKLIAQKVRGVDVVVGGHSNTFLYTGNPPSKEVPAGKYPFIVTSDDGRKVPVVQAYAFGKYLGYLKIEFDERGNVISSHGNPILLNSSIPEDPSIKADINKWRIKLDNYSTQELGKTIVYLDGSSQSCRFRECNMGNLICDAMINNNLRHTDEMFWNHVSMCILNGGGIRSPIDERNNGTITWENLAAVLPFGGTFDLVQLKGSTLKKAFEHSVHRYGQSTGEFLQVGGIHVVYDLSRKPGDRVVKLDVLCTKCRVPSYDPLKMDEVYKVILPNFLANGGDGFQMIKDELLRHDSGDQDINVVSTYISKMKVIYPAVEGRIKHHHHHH

T3: human CD73 (full length, on transfected CHOK1 cells) (human, UniProt P21589 27-549)
T3 sequence (looked up): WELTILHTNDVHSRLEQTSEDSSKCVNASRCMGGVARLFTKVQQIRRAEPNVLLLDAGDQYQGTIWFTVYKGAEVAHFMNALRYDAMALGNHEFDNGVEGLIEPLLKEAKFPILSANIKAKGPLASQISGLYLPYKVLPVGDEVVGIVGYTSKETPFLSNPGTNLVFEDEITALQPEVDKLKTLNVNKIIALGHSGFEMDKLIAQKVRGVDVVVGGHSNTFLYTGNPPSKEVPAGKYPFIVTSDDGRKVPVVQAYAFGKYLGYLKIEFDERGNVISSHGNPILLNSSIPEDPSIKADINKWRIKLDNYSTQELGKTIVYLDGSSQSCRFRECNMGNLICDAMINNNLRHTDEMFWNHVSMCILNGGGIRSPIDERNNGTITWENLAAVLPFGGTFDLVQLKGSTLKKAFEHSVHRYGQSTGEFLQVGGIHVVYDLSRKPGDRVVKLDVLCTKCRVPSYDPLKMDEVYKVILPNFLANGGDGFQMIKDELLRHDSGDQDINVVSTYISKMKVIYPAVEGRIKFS

T4: murine CD73 (on transfected CHOK1 cells) (mouse, UniProt Q61503 29-551)
T4 construct: whole, on cells; also called CHOK1-mCD73; mCD73
T4 sequence (looked up): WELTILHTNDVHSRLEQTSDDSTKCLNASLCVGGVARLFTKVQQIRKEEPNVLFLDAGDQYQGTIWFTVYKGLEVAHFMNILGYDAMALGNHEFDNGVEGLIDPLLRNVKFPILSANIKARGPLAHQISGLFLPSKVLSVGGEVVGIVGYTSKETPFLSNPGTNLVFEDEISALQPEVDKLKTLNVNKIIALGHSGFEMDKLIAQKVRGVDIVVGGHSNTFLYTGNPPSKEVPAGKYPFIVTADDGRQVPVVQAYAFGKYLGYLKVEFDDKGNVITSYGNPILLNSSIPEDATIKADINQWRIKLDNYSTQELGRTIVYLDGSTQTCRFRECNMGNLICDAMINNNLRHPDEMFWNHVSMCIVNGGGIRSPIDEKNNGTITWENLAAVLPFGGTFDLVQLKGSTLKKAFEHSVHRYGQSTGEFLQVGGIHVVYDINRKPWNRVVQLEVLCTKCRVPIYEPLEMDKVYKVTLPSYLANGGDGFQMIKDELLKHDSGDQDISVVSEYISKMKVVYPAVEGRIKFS


How the values were obtained:
[1] = biological target: T1, cynomolgus monkey CD73 (on transfected …); assay: FACS on CHOK1-cCD73 cells
[2] = biological target: T2, His-tagged CD73 extracellular domain …; assay: Octet BLI, antibody on AHC sensor, antigen 50-200 nM, 1:1 fit
Source text: Octet Red 96 was selected as the test instrument, and AHC biosensor was selected as the test sensor in this experiment. Anti-human IgG Fc antibody has been immobilized on the AHC sensor, which can be used to directly capture the 15 antibodies in this experiment. Then the sensor was immersed in the analysis sample (antigen). There were five steps in this experiment: 1, Baseline (120 s) 2, Loading (capture antibody) (300 s) 3, Baseline (120 s) 4, Association (binding antigen) (180 s) 5, Dissociation (antigen dissociation) (1200 s). After the test was completed, the regeneration buffer (Glycine PH1.5) and the neutralization buffer (1*PBS buffer) were alternately immersed for 5 seconds, and the sensor was regenerated by a total of five cycles. The maximum number of sensor regeneration times is 10. The running buffer in this experiment is the sample diluent (1*PBS buffer containing 0.02% Tween20 and 0.1% BSA), that is, the buffer used in the Baseline step, the Dissociation step, and the blank analyte sample. Four sensors are used at one running in this experiment.
Sample treatment: all the antibodies were diluted to the working concentration of 10 ug/ml with sample diluent (1*PBS buffer containing 0.02% Tween20 and 0.1% BSA), and the analyte samples (antigens) were diluted to three working concentrations: 200 nM, 100 nM and 50 nM.
For data analysis, Octet Data Analysis (version 7.0) was used to calculate the response signal value (the signal of the coupled analyte sample minus the signal of the blank analyte sample), and a 1:1 binding model was used to fit the data.

[3] = biological target: T3, human CD73 (full length, on transfected …); assay: cell-based or functional assay
[4] = biological target: T4, murine CD73 (on transfected CHOK1 cells); assay: FACS on CHOK1-mCD73 cells
[5] = biological target: T3, human CD73 (full length, on transfected …); assay: FACS on CHOK1-hCD73 cells
[6] = biological target: T2, His-tagged CD73 extracellular domain …; assay: affinity to hCD73 ECD-His (headed SPR; Octet assumed as in 5.5)

EC50 [1] [nM]	MAX MFI fold [1] [fold]	Kd [2] [nM]	koff [2] [s⁻¹]	kon [2] [M⁻¹ s⁻¹]	Inhibition assay of enzyme activity, IC50 [3] [nM]	Inhibition assay of enzyme activity, MAX % inhibition [3] [%]	binding result [4]	EC50 [5] [nM]	MAX MFI fold [5] [fold]	Kd [6] [nM]	koff [6] [s⁻¹]	kon [6] [M⁻¹ s⁻¹]	Binder
7.6	174	0.086	3.29e-05	383000	0.1	49.1	no binding	> 10	> 150				mab044xhIgG1TM (clone 80H7D6), mouse-human chimeric anti-CD73 antibody (antibody, V domains shown, also called mAb044 chimeric antibody) VH: EVKLVESGGGLVQPGGSLRLSCAASGFTFTDYYMSWVRQPPGKALEWLGFIRNKADGSTTEYSASVKGRFTISRDNSQSILYLQMNALRPEDSATYYCTRSPIYFDNWYFDVWGTGTTVTVSS VL: DIVMSQSPSSLAVSVGEKVTMTCKSSQSLLYSNNQKNYLAWYQQKPGQSPKLLIYWASTRESGVPDRFTGSGSGTDFTLTLSSVKAEDLAVYYCQQYYSYPFTFGSGTKLEIK
3.6	173	0.112	4.86e-05	434000	0.1	54.7	no binding	1.2	160				mab065xhIgG1TM (clone 125A4E10), mouse-human chimeric anti-CD73 antibody (antibody, V domains shown, also called mAb065 chimeric antibody) VH: EVQLQQSGPELVKPGASVKISCKASGYTFTDYYMNWVKQSHGKSLEWIGNINPNNGDTNYNQKFKGKATLTVDKSSSTASMELRSLTSEDSAVYYCANSGYYYFDYWGQGTTLTVSS VL: DIVMTQSPSSLTVTAGEKVTMSCKSSQSLLNSGNQKNYLTWYQQKPGQPPKVLIYWASTRESGVPDRFTGSGSGTDFTLTISSVQAEDLAVYYCQNDYSYPPTFGGGTNLEIK
2.3	167	0.124	2.97e-05	240000	0.8	52.4	no binding	1.8	120				mab038xhIgG1TM (clone 69C9E12), mouse-human chimeric anti-CD73 antibody (antibody, V domains shown, also called mAb038 chimeric antibody) VH: QVQLQQPGTELVNPGASVKLSCKASGYTFTSYWMHWVKQRPGQGLEWIGNINPSNGGTHYNEKFNNKATLTVDKSSSTAYMQLSSLTSEDSAVFYCARGDYAYDWYFTVWGTGTTVTVSS VL: DIVLTQSPASLAVSLGQRAIISCKASQSVSFAGTGLMHWYQQKPGQQPKLLIYRVSNLEAGIPTRFSGSGSRTDFTLNIHPVEEDDAATYYCQQNREFPWTFGGGTKLEIK
2	167	0.298	4.41e-05	148000	0.7	54.4	no binding	1.3	127				mab041xhIgG1TM (clone 71E10B3), mouse-human chimeric anti-CD73 antibody (antibody, V domains shown, also called mAb041 chimeric antibody) VH: QVQLQQPGTELVKPGASVKLSCKASGYTFTSYWMHWVKQRPGQGLEWIGNINPSNGGTNYNQKFKSKATLTVDKSSNTASMQLSSLTSEDSAVYYCARGDYGYDWYLDVWGTGTTVTVSS VL: DIVLTQSPASLAVSLGQRAIISCKASQSVSFAGPSLMHWYQQKPGQQPKLLIYRTSNLEAGVPTRFSGSGSGTDFTLNIHPVEEDDAATYYCQQNREFPWTFGGGTKLEIK
0.8	138	0.0385	1.16e-05	302000	0.1	67.4	no binding	1.5	114	0.0316	2.27e-05	719000	mab030xhIgG1TM (clone 42A5A7), mouse-human chimeric anti-CD73 antibody (antibody, V domains shown, also called mAb030 chimeric antibody) VH: DIQLQESGPGLVKPSQSLSLTCSVTGYSITSRYYWNWIRQFPGNKLEWMGYITYDDNNNYNPSLKNRISITRDTSKNQFFLKLNSVTPEDTATYYCARGGWDPFLYWGQGTLVTVSA VL: DIQMTQSPASLSASVGETVTITCRASDNIYSYLAWYQQKQGKSLQLLVDSAKNLGEGVPSRFSGSGSGTQFYLKINSLQPEDFGVYYCQHYYGTPFTFGGGTKLELK
										0.0208	1.55e-05	746000	Hu030-2, humanized anti-CD73 antibody (Hu030VH g1 / Hu030VL g0) (antibody, V domains shown, also called antibody 11) VH: QVQLQESGPGLVKPSETLSLTCTVSGYSITSRYYWNWIRQPPGKGLEWIGYITYDDNNNYNPSLKNRVTISRDTSKNQFSLKLSSVTAADTAVYYCARGGWDPFLYWGQGTLVTVSS VL: DIQMTQSPSSLSASVGDRVTITCRASDNIYSYLAWYQQKPGKAPKLLIYSAKNLGEGVPSRFSGSGSGTDFTLTISSLQPEDFATYYCQHYYGTPFTFGGGTKVEIK
5.9	132	0.0592	2.73e-05	461000	0.5	66.3	no binding	2.3	136				mab042xhIgG1TM (clone 77B9A3), mouse-human chimeric anti-CD73 antibody (antibody, V domains shown, also called mAb042 chimeric antibody) VH: QVQLQQSGAGLVKPGASVKLSCKASGYTFTNYWMHWVKQRPGQGLEWIGMIHPNSGSTNNNEKFKNKATLTVDKSSNTAYMQLSSLTSEDSAVYYCARFFFGGYPHYYALDYWGQGTSVTVSS VL: DIVMTQSQKFMSTTVGDRVSITCKASQNVGTAVAWYQQKPGQSPKLLIYSASDRYTGVPDRLTGSGSGTDFTLTISNVQSEDLADYFCQQYSSFPLFTFGSGTKLVIQ
